Our source for the NcAg-stimulated IFNγ production in mouse splenocytes values is patent US20090208519A1.

The test addresses native Neospora caninum cyclophilin (NcCyP) in whole-cell tachyzoite lysate (NcAg) (Neospora caninum) (UniProt P84343). The test can be described thus: cell-based or functional assay.
Chain of UniProt P84343 (P84343 18-178 limits assumed): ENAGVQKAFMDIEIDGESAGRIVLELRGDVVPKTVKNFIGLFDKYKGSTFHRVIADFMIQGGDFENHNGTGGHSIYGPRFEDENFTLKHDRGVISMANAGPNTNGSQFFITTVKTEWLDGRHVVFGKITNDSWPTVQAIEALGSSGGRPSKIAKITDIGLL

For cyclosporin A (CsA) (peptide), the NcAg-stimulated IFNγ production in mouse splenocytes was in the range of 10 to 100 nM.
